Reference: FireProtDB (doi:10.1002/pro.5560041207)

Settings: Cereibacter sphaeroides, pH 7.4, 23 °C, Urea, Fluorescence, whole UniProt chain shown

B1: Thioredoxin wild type, P08058 (protein)
chain: MSTVPVTDATFDTEVRKSDVPVVVDFWAEWCGPCRQIGPALEELSKEYAGKVKIVKVNVDENPESPAMLGVRGIPALFLFKNGQVVSNKVGAAPKAALATWIASAL
- unfolding free energy (Potassium phosphate 20 mM): 8.2 kcal/mol
- unfolding free energy (Potassium phosphate 20mM): 8.13 kcal/mol
